How the values were obtained:
[1] = target: T1, IgG-Fab derived from anti-RSV monoclonal antibody (Palivizumab); experiment: SPR Biacore 3000, Fab immobilized on CM5, peptide flown, 25° C., pH 7.4, 1:1 model
T1 construct: Humanized monoclonal IgG fragmented with papain; Immobilized on a CM5 sensor tip; also called Anti-RSV antibody - Fab; Synagis Fab fragment
Experimental: (§1) The affinity of the peptide obtained in the above-described Example 1(2) for the Fc region and Fab region of anti-RSV monoclonal antibody was evaluated using a biosensor Biacore3000 (manufactured by GE Healthcare Bioscience) utilizing surface plasmon resonance. In the present Example, the IgG-Fc or IgG-Fab obtained in the above-described Example 2(1) was immobilized on a sensor tip, and the peptide was flown on the tip to detect the interaction between the two. The IgG-Fab or IgG-Fc was immobilized on a sensor tip CM5 by amine coupling method using N-hydroxysuccinimide (NHS) and N-ethyl-N′-(3-dimethylaminopropyl)carbodiimide hydrochloride (EDC), and ethanolamine was used for blocking. All of the sensor tip and reagents for immobilization was manufactured by GE Healthcare Bioscience. The IgG-Fab solution was diluted to about 10 times using a buffer for immobilization (10 mM AcOH—AcONa, pH 4.5), and the IgG-Fab was immobilized on the sensor tip in accordance with the protocol attached to the Biacore 3000. In addition, a reference cell as negative control was also prepared by activating another flow cell on the tip with EDC/NHS and then immobilizing ethanolamine only. Peptide solutions having concentrations of 16 nM, 64 nM or 256 nM were prepared using a running buffer (20 mM NaH₂PO₄—Na₂HPO₄, 150 mM NaCl, 0.005% P-20, pH 7.4). Each peptide solution was added to the sensor tip in a flow rate of 40 μL/min for 1 minute. Bonding response curves at the time of addition (association phase, 1 minute) and after the addition (dissociation phase, 1 minute) were sequentially obtained at a measurement temperature of 25° C. After each measurement, about 20 mM NaOH was added for wash.

[2] = target: T2, IgG-Fc derived from anti-RSV monoclonal antibody (Palivizumab) (human, UniProt P01857-1 108-330 = IgG part, limits assumed); experiment: SPR Biacore 3000, Fc immobilized on CM5, peptide flown, 25° C., pH 7.4, 1:1 model
T2 construct: domain: Fc region; Immobilized on a CM5 sensor tip by amine coupling; also called Anti-RSV antibody - Fc; Synagis Fc fragment
Experimental: as §1

[3] = target: T3, IgG-Fab prepared from anti-EGFR monoclonal antibody (Erbitux); experiment: SPR Biacore 3000, Fab immobilized on CM5, peptide at 25, 100, 400 nM, 1:1 model
T3 construct: Chimeric antibody; also called Anti-EGFR antibody - Fab
Experimental: as §1, with “Peptide solutions having concentrations of 16 nM, 64 nM or 256 nM were prepared using a running buffer (20 mM NaH₂PO₄—Na₂HPO₄, 150 mM NaCl, 0.005% P-20, pH 7.4).” left out
(§2) Also, the affinity of the peptide according to the present invention (SEQ ID NO: 2) for IgG-Fab prepared from anti-EGFR monoclonal antibody (“Erbitux” sold by Bristol-Myers Squibb) and anti-TNFα monoclonal antibody (“Remicade” sold by Mitsubishi Tanabe Pharma Corporation) was evaluated.

[4] = target: T4, IgG-Fab prepared from anti-TNFα monoclonal antibody (Remicade); experiment: as above
T4 construct: Chimeric antibody; also called Anti-TNFα antibody - Fab; IgG-Fab of anti-TNFα monoclonal antibody
Experimental: as §1, with “Peptide solutions having concentrations of 16 nM, 64 nM or 256 nM were prepared using a running buffer (20 mM NaH₂PO₄—Na₂HPO₄, 150 mM NaCl, 0.005% P-20, pH 7.4).” left out
as §2

B1: immunoglobulin G-binding peptide having the amino acid sequence of SEQ ID NO: 2 (designed binder)
chain: GPLGSTTYKLILNGKTLTGYTTAIAADAATAEIVLKQFANDNGIDGEWTYDDATKTFTVTE
notes: Expressed as a GST fusion in E. coli; GST was cleaved off with PreScission Protease before the assay; also called SpG mutant
Work on B1 yielded a Ka [1] of 2e+07 M⁻¹, a koff [1] of 0.003 s⁻¹ and a kon [1] of 66000 M⁻¹ s⁻¹. It also gave a Ka [2] of 3.5e+06 M⁻¹, a koff [2] of 0.028 s⁻¹ and a kon [2] of 97000 M⁻¹ s⁻¹. The Ka [3] was 6.5e+07 M⁻¹, the koff [3] was 0.039 s⁻¹ and the kon [3] was 252000 M⁻¹ s⁻¹. The Ka [4] was 4e+07 M⁻¹, the koff [4] was 0.01 s⁻¹ and the kon [4] was 413000 M⁻¹ s⁻¹.
